Target: CMV gB ectodomain protein (human cytomegalovirus) (UniProt P13201)

B1: TRL345 (antibody, V domains shown)
VH: QVQLVESGGGVVQPGRSLRLSCAASGFTFSDYNMHWVRQAPGKGLEWVAVISIDGTYKYSADSVAGRFSLSRDNSKNTLYLQMNSLRPDDTAIYYCARDGRSVGGFSGILDPWGQGTLVTVSS
VL: EIVMTQSPATLSLSPGDRATLSCRASQSVGSYLAWYQQKPGQAPRLLMYDSSVRATGIPARFSGSGSGTDFTLTISSLEPEDFAVYYCQQRNNWPPLTFGGGTKVEIK
- neutralization of CMV strain AD169rUL131-GFP on ARPE epithelial cells, IC50: 0.3 µg/mL
- neutralization of CMV strain AD169rUL131-GFP on MRC-5 fibroblasts, IC50: 0.24 µg/mL
- neutralization of CMV strain Toledo on MRC-5 fibroblasts, IC50: 0.19 µg/mL
- neutralization of CMV strain Towne on MRC-5 fibroblasts, IC50: 0.21 µg/mL
